Where a chain is given by its changes, count along the chain named.
How the values were obtained:
Test in all cases: BLI
Details in all cases: both partners purified
[1] = target: recombinant SARS-CoV-2 RBD-His protein (Sino Biological, 40592-V08B) (SARS-CoV-2, UniProt P0DTC2)
[2] = target: SARS-CoV-2 RBD (residues 319-541), wild type (SARS-CoV-2, wild type, UniProt P0DTC2)
SARS-CoV-2 Alpha RBD [3] = target: T1, SARS-CoV-2 Alpha RBD (SARS-CoV-2 Alpha (B.1.1.7), N501Y (stands in the printed letters))
SARS-CoV-2 Alpha RBD [4] = target: T1, SARS-CoV-2 Alpha RBD; remark: listed apart in the source
[5] = target: S-R/PP SARS-CoV-2 spike (2P-stabilized spike with furin site changed to a single R) (SARS-CoV-2, wild type (Wuhan-Hu-1 spike), UniProt P0DTC2, stabilised)
[6] = target: S-R SARS-CoV-2 spike (unstabilized native spike with furin site changed to a single R) (SARS-CoV-2, wild type (Wuhan-Hu-1 spike), UniProt P0DTC2, stabilised)
[7] = target: S-R/x2 SARS-CoV-2 spike (x2 disulfide-stabilized RBD 'down' spike) (SARS-CoV-2, wild type (Wuhan-Hu-1 spike), UniProt P0DTC2, stabilised)
[8] = target: S-R/x3 SARS-CoV-2 spike (x3 disulfide-stabilized RBD 'down' spike) (SARS-CoV-2, wild type (Wuhan-Hu-1 spike), UniProt P0DTC2, stabilised)
[9] = target: SARS-CoV-2 Alpha (B.1.1.7) variant RBD (SARS-CoV-2 Alpha (B.1.1.7), N501Y)
SARS-CoV-2 Alpha RBD [10] = target: T1, SARS-CoV-2 Alpha RBD; remark: listed apart in the source

B1: C978 (R1-32-like mAb, ref. 27) (antibody, V domains shown)
VH: QVQLVQSGAEVKKPGSSVKVSCKASGATFSNYIISWVRQAPGQGLEWMGRTIPLLDIANYAQKFQGRVTITADKSTRIVYMHLGSLTSEDTAVYYCATGKGYSSSSAAYYFDHWGQGTLVTVSS
VL: QSVLTQPPSVSGAPGQRVTISCTGTNSNIGAGYDIHWYQQLPGTAPKLLIYGSNNRPSGVPDRFSGSKSGTSASLAITGLQAEDEADYYCQSYDSSLSGSEVFGGGTKLTVL
- binding result [1]: binds
- binding result [2]: binds

B2: R1-32 (antibody, V domains shown)
VH: EVQLVESGAEVKKPGSSVKVSCKASGGTFSSYAISWVRQAPGQGLEWMGGIIPILGIANYAQKFQGRVTITADKSTSTAYMELSSLRSEDTAVYYCARENGYSGYGAAANFDLWGRGTLVTVSS
VL: QSVLTQPPSVSGAPGQRVTISCTGSSSNIGAGYDVHWYQQLPGTAPKLLIYGNSNRPSGVPDRFSGSKSGTSASLAITGLQAEDEADYYCQSYDSSLSGSVFGGGTKLTVL
notes: human IgG1
- koff (SARS-CoV-2 Alpha RBD [3]): 0.000354 s⁻¹
- kon (SARS-CoV-2 Alpha RBD [3]): 499000 M⁻¹ s⁻¹
- Kd (SARS-CoV-2 Alpha RBD [4]): 4.74 nM
- koff (SARS-CoV-2 Alpha RBD [4]): 0.00195 s⁻¹
- kon (SARS-CoV-2 Alpha RBD [4]): 411000 M⁻¹ s⁻¹

B3: C091 (R1-32-like mAb, ref. 28) (antibody, V domains shown)
VH: QVQLVQSGAEVKKPGSSVKVSCKASGGTFSSYTISWVRQAPGQGLEWMGRIIPILGIANYAQKFQGRVTITADKSTSTAYMELSSLRSEDTAVYYCARDSGYSGYGSTYYMDVWGKGTTVTVSS
VL: B2 VL with G104T, G105V, L108V
- binding result [1]: binds
- binding result [2]: binds

B4: C092 (R1-32-like mAb, ref. 28) (antibody, V domains shown)
VH: B3 VH with T28S, S30T, S31N, Y32H, T33F, I57T, K63N, T69M, I70M
VL: B2 VL with S26N, T44A, S54N, G70D, A82V, G99D, G104S, L108V
- binding result [1]: binds
- binding result [2]: binds

B5: C807 (R1-32-like mAb, ref. 29) (antibody, V domains shown)
VH: QVQLVQSGAEAKKPGSSVKVSCKASGGTFKSYIINWVRQAPGQGLEWMGEIIPIFGTANYAQKFQGRVTSTADESTSTAYMELSSLKSEDTAVYYCARGRGYSGYGASYYFDYWGQGTLVTVSS
VL: B2 VL with S26N, G52A, S96G
- binding result [1]: binds
- binding result [2]: binds

B6: C832 (R1-32-like mAb, ref. 29) (antibody, V domains shown)
VH: B3 VH with T33S, N59S, A79V, S84T, S85G, E89D, S100R, G104D, T108H
VL: B2 VL with G52I, G99D
- binding result [1]: binds
- binding result [2]: binds

B7: R1-32 (human IgG1 monoclonal antibody) (antibody, V domains shown)
VH: B2 VH
VL: B2 VL
- binding result [5]: binds
- binding result [6]: binds
- binding result [7]: binds
- binding result [8]: binds
- Kd [9]: 0.71 nM

B8: C963 (R1-32-like mAb, ref. 27) (antibody, V domains shown)
VH: QVQLVQSGAEVKKPGSSVRVSCKASGGTFSSFTITWVRQAPGQGLEWMGRIIPNLNIPNYAQRFQGRITITAEKSTSTAYLELSSLRSEDTAVYYCARGVGYSGSGSNWYFDLWGRGTLVTVSS
VL: QSVLTQPPSVSGAPGQRVTISCTGSSSNIGAGYDVHWYQQLPGTAPKLLISGHINRPSGVPDRFSGSTSGTSASLAITGLQAEDEADYYCQSYDSSLSDSVFGGGTKLTV
- binding result [1]: binds
- binding result [2]: binds

B9: C941 (R1-32-like mAb, ref. 27) (antibody, V domains shown)
VH: QVQLVQSGAEVKKPGSSVKVSCKASGGTSRSYPISWVRQAPGQGLEWMGRIIPIVGTANYAQRFQGRVTITADESTGTAYMELSSLRSEDTAVYYCARNRGYSDYGSVYYFDYWGQGTLVTVSS
VL: B8 VL with T44A, S51Y, G52R, H53N, T68K, E83D, D99G
- binding result [1]: binds
- binding result [2]: binds

B10: FC08 (antibody, V domains shown)
VH: QLLQQSGAEVKKPGSSVKVSCKASGGTFSSYAISWVRQAPGQGLEWMGGIIPIIGIANYAQKFQGRVTITADKSTSTAYMELSSLRSEDTAVYYCARERGYSGYGAAYYFDYWGQGTLVTVSS
VL: SVLTQPPSVSGAPGQRVTISCTGSSSNIGAGYDVHWYQQLPGTAPKLLIYGNSNRPSGVPDRFSGSKSGTSASLAITGLQAEDEADYYCQSYDSSLSGSVFGGGTKLTVL
- Kd (SARS-CoV-2 Alpha RBD [10]): 0.15 nM
- koff (SARS-CoV-2 Alpha RBD [10]): 0.00025 s⁻¹
- kon (SARS-CoV-2 Alpha RBD [10]): 1.69e+06 M⁻¹ s⁻¹

B11: FC08 (R1-32 related VH1-69 antibody, ref. 10) (antibody, V domains shown)
VH: B10 VH
VL: B10 VL
- binding result [6]: binds
- binding result [8]: binds
- binding result [2]: binds

Reference: article PMC9519457 (Nature Microbiology, 2022)
